# T1: GST-JunB (mouse, UniProt P09450 1-344)
# T1 sequence: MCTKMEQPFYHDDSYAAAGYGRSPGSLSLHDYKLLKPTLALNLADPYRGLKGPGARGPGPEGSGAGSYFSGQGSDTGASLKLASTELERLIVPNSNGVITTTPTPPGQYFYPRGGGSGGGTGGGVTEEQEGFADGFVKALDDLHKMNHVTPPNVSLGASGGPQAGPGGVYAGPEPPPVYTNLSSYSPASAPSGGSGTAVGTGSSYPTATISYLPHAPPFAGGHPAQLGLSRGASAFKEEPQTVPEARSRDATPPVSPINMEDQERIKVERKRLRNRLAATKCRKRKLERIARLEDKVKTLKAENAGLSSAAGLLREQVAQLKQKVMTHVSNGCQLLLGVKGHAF
# B1: Erra promoter TRE probe WT (-1305/-1315) (dsDNA)
# DNA 1: AGTGAGTGACTCAGAGGACTT
# DNA 2: AAGTCCTCTGAGTCACTCACT
# Target: T1, GST-JunB
# Test: EMSA
binder,measurement,value
B1,binding result,binds

# Reference: publication PMC10954369
